# Results from IntAct's records for PubMed 36638908.
# B1: Eukaryotic translation initiation factor 4E1 (Drosophila melanogaster (Fruit fly)), P48598 (parent)
# chain: MQSDFHRMKNFANPKSMFKTSAPSTEQGRPEPPTSAAAPAEAKDVKPKEDPQETGEPAGNTATTTAPAGDDAVRTEHLYKHPLMNVWTLWYLENDRSKSWEDMQNEITSFDTVEDFWSLYNHIKPPSEIKLGSDYSLFKKNIRPMWEDAANKQGGRWVITLNKSSKTDLDNLWLDVLLCLIGEAFDHSDQICGAVINIRGKSNKISIWTADGNNEEAALEIGHKLRDALRLGRNNSLQYQLHKDTMVKQGSNVKSIYTL
# partner: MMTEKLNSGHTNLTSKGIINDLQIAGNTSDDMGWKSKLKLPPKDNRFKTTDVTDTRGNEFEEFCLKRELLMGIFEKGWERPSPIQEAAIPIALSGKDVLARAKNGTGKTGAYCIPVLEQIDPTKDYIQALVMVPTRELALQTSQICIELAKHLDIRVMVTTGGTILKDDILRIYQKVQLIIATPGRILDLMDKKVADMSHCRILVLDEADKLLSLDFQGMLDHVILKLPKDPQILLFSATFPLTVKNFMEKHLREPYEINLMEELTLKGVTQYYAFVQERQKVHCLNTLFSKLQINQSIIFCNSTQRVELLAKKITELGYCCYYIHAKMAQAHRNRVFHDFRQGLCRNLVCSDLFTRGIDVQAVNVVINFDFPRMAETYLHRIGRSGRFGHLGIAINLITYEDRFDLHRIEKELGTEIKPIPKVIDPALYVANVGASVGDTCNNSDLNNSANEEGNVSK
# Variants of: B1
# Conditions: with ddx6_drome me31B
row,Variant,effect of a mutation on the interaction
1,W117A,disrupting interaction strength
